# From article PMC8509923
# Target: T1, Upc2A DNA-binding domain (Candida glabrata) (UniProt Q6FX18)
# T1 sequence: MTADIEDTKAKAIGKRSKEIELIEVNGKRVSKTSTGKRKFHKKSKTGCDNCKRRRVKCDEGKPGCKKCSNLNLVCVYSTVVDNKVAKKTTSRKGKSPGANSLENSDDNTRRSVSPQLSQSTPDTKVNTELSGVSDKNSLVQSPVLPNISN
# Assay: DNase I footprinting
# Details: 5' amino-MC6 on reverse strand
sequence,measurement,value
ACTGCCACACAGAAGAGCAGCGGGACTACCGGAACACGATTAGCCTTCGTTTACATGTTGGCAAACCCAGGACATAGATCAGAGTGTATTACATTAGCACAGACCGGCCGTGGGTAAGTTTTTCCTGACTAAAATGGCCGCAGCTGCAAGTCCACGGAATATTTCCCTTTTTTGCTCGATAAGTTGTAC (double strand) [CDR1 promoter DNase I probe],binding,binds
